± gives the uncertainty stated by the source.

This data set can be described thus: amyloid nucleation score (Sup35N fusion, yeast selection) (log enrichment); library NNK2; higher = more nucleation; inactive = no reads after selection. The method in brief: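 On medium lacking adenine and uracil, psi-negative yeast expressing peptides of 20 random codons fused to Sup35N were grown 7 days at 30°C after a 24-hour induction with 100 μM copper sulfate. Illumina sequencing of input and output plasmid inserts gave the reads, and sequences under 100 input reads were excluded. The nucleation score is the DiMSum log enrichment of output over input reads, centred on the mode score of non-aggregating sequences.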

Take LCSKGYIMRSAGCRVDCSGV: the amyloid nucleation score was -0.58 ± 0.41. For SVAWVLLWV the value was 0.636 ± 0.81. In the case of ELFTLGLEGALEVNELKLKY it was 0.782 ± 0.18; in that of VEVYTVSSYVDYVYPDCRGV, 0.418 ± 0.62; in that of MSYILFCLPSNARCFLP, “inactive”. Consider ESYLFAWDNGMFYIANDLEF, for which the amyloid nucleation score was determined as 0.494 ± 0.8. In the case of SDFIAGVKLSRNFDGRG it was -0.097 ± 1.1; in that of VWPLFAEDGCNANGVVNQVS, 0.955 ± 0.22. For PLIYLSSFYIDCHLWSSFGV the value was 6.806 ± 0.035; for VSCCCFFGLTLAVLGHSEVS, 3.55 ± 0.12. AWRYWFHTLSLTLKNWTSVF came in with an amyloid nucleation score of 5.14 ± 0.087.

ATLGTVRCYRKRAIFFEGHL registered an amyloid nucleation score of 1.17 ± 0.45. With ACRELVWLG, the amyloid nucleation score was found to be 0.354 ± 0.65. For IRQIIESWQFLYISVYAGLV the value was 0.186 ± 0.51; for HCLEMGCGLYNAR, 9.476 ± 0.071. In the case of RARGIV it was -0.664 ± 0.55.

On to LMAKVRLRVGLGHWLDVWG, for which the amyloid nucleation score is 2.93 ± 0.12.

Take KVRDCDIMAPNIMVRSLNRS: the amyloid nucleation score was found to be 1.73 ± 0.16. For QMSLAGRG the value was “inactive”. In the case of YAMCPCVYNLDSQGAC it was 3.85 ± 0.12; in that of IWLDSHSSAWISWTIMI, -0.585 ± 0.41; in that of FNAERFLQSIEMVWWDKGFL, -1.53 ± 0.41. For KLSYFAFFRSVDGLR the value was 0.508 ± 0.53; for NDTAATGANDETSDFYTEYC, 0.376 ± 0.66; for CESHVSRWYSVS, 0.505 ± 0.27.

The substance CFGFYGAIVD showed an amyloid nucleation score of 0.023 ± 0.39. For TLLLDQCDSRVDFWSNVP, the amyloid nucleation score was -0.088 ± 1.1. In the case of YDSWLDTVVFDFFCLCLDKA it was -1.42 ± 0.75; in that of DSFFAEMDNLNSGRTPFKGT, “inactive”; in that of RKLRVNWERCFHVSEAGLKV, 0.057 ± 1.1. In the case of NQMYQNE it was -0.352 ± 0.45. In the case of NLNIFGLAMLCNRRGAYMRK it was 6.829 ± 0.039; in that of TFLYREVPLRRYR, 0.135 ± 0.63. In the case of QFAYTRSSPVKIYLYNNYGA, the amyloid nucleation score stood at 8.109 ± 0.037. For LTYYLSYCHYRRTYLAGLLQ, the amyloid nucleation score was -0.249 ± 0.2. In the case of GAMDLHQWASMMNMFPAMCV it was 0.731 ± 0.47; in that of LVNFSSLIV, -2.07 ± 1.1. Turning to HWDQLV, the amyloid nucleation score is -0.504 ± 0.78. In the case of TSSFEARRRGWLTDEGVLFY it was 0.784 ± 0.54. For VLYYTPRLSVERMGFHNMIY the value was -0.46 ± 1; for SMSSNVRTYNQFTHL, 0.716 ± 0.53; for YCFFKVKTDLKTMCELGSTA, -0.122 ± 0.55. For FYRNPHR the value was 0.706 ± 0.81; for SCVMGYKEVAFL, -0.081 ± 0.34; for CLVINSIKVFYARVGTSYKF, 2.01 ± 0.19. The substance CVVQHSRSFVRPLLSTLQAC had an amyloid nucleation score of 0.453 ± 0.23. For FCCARILVNVSCVGATCGMC the value was 8.258 ± 0.043; for EYYLSVYSYYCYCLTCMFVI, 3.46 ± 0.15. For TCVLKVFVL the value was -1.43 ± 1.1; for MYVDLKLSYNHSPATLW, 5.22 ± 0.061. In the case of ISYHSVWDKLFFYVVDFYTS it was -0.591 ± 1; in that of LCSRSYGFRFYFSSGAQSVR, 0.541 ± 0.66. The substance ANPTADP came in with an amyloid nucleation score of 0.578 ± 0.29.

Turning to CAFYDYGKALPRGNFRLSKM, the amyloid nucleation score is -0.208 ± 1.

In turn, VKVPYMLARGLDQKGTRRWQ had an amyloid nucleation score of 8.102 ± 0.064.

Turning to TSNSTQLEDLV, the amyloid nucleation score was 0.309 ± 0.45.

For the substance RHLHYRRYKIAAKGLIVFMN, the amyloid nucleation score stood at 3.95 ± 0.067. In the case of RKNSWDISHPAGTCNIRFIL it was 0.339 ± 0.61. Consider VDMPTSQFVTSTTLGTLVTM, for which the amyloid nucleation score was determined as 2.32 ± 0.12. SWYILILGFRGKIIYPFRLG: the amyloid nucleation score is -1.03 ± 0.76.

On to REAMTCIFDLKYAGLASVWW, for which the amyloid nucleation score is -0.532 ± 1. For DRFTAGLIFCMLCLGRYVCM the value was “inactive”; for KEMARTSSSRCDITLQWPAS, 0.562 ± 0.44; for NRGISLGIHLRPGCMCAAHR, 0.005 ± 1. For the substance FCLYFSKNF, the amyloid nucleation score came out at 3.63 ± 0.13. TAMFPHVRYSDTSYPAKRAV: the amyloid nucleation score was -0.947 ± 0.41. For GMIGNTIGNECTIYLNDQYV the value was 0.825 ± 0.34; for PFVTK, 0.259 ± 0.29; for AYKTSHVWSLYRVHGV, 0.41 ± 0.25. Consider YNKLRPGATCHLETWS, for which the amyloid nucleation score is -0.614 ± 0.79. In the case of RMWCLGLDPLYTENKGSSDA it was -0.427 ± 1.1; in that of RTMFNLHADCERNLFWFGGW, 5.13 ± 0.065; in that of WQKLLIDYSSSTYDEALGT, 0.833 ± 0.8. In the case of IQGPIVEFTISIRSSSRRHW it was 3.1 ± 0.083; in that of NLHFCVQKSGESASRVVHHA, 0.958 ± 0.46. In the case of HNGVRRHMSNVSKILHSYF it was 0.02 ± 1; in that of VALQWMG, 2.2 ± 0.19. In the case of VTKDCNMRMKCTSSIIFLKN, the amyloid nucleation score is -0.459 ± 1.1. On to NKVAKLDFFFLKGPAFRNKA, for which the amyloid nucleation score result was “inactive”. In the case of VGFRSSCMVTSLIY it was -1.64 ± 0.44; in that of INVPCFRLKSSVGVISLQGT, 0.205 ± 0.26; in that of FYCCIITYLDMA, 6.667 ± 0.026. For WYFWGLHMIGVSTAISNPLR the value was -0.683 ± 1.1; for RYNILSSSATV, “inactive”; for TLHFKFMVIRRN, -0.254 ± 0.63. For VLVRS the value was 0.157 ± 1; for SHSYGTER, 4.64 ± 0.074; for VVRYLYRWTTVVGLHGGSHN, -0.786 ± 0.43. Consider CSFLYIGLVIPSFEYDHALL, for which the amyloid nucleation score was determined as 4.171 ± 0.041. For MDLMGCLYYPDT the value was 1.05 ± 0.35. The substance DLSHNVNVCICFCWAMRYDA registered an amyloid nucleation score of 8.342 ± 0.045. For IYFPP the value was -0.689 ± 0.4. In the case of HYQYSFARTMVMLNMDWLML it was 0.462 ± 0.43. For ALIKTLYY the value was -0.305 ± 0.48; for HSSCIVVEAFSQGVVHNLFV, -0.567 ± 1.1; for RKGSTGRDISSNSYIVY, “inactive”. For SLEVCLIALDYGIQFLSTSA, the amyloid nucleation score stood at 0.099 ± 0.18.

For TVLLSLSYADCSMLWLVRTL, the amyloid nucleation score is -0.304 ± 1.1. In the case of TEASLMWRYWDGDPWQWSFD it was “inactive”; in that of DLHPGNSNAD, -0.146 ± 0.54; in that of GFGSVLIW, -0.523 ± 1. In the case of ALYCERCYWPV it was 0.092 ± 0.53; in that of VLYLLKSSSFSTGVNSRCMR, -0.256 ± 1.1. For IFSWTLEV the value was 0.249 ± 0.64.

The values are drawn from the supplement of paper PMC12042874.
